Data: US8993741B2, “SMNdelta7 degron: novel compositions and methods of use” (The Trustees of the University of Pennsylvania, priority 2009, dated 2015)

Experiments:
293T cells [1] = test: Protein stability assay: luciferase activity of Luc-fused constructs after CHX treatment; type: cell-based; details: Luc fusion in 293T cells, CHX 0.1 mg/ml, up to 10 hours
Description: To construct plasmids expressing Luc-fused proteins, the luciferase gene was cloned into pcDNA3.1 vector at HindIII/KpnI sites, then DNA fragments encoding full-length wild type human SMN, SMNΔ7, several deletion mutants of SMNΔ7, and optiPEST were inserted into the KpnI/XhoI sites. SMNΔ7 mutants with single amino acid change were generated by mutating residues in YG+EMLA to alanine by Quickchange site-directed mutagenesis kit (Stratagene).
Cells (293T cells) were transfected with plasmids expressing various constructs including Luc-SMN, Luc-SMNΔ7, GFP-YG+EMLA or GFP-NS. Forty-eight hours after transfection, the cells were treated with CHX (0.1 mg/ml) for various times as indicated and then assayed for luciferase activity. Luciferase activity at each time point was calculated by comparison to those at time 0, which was set to 100%. Luciferase activities were measured using One-Glo reagent (Promega).
A reporter system that recapitulates the differential stability of full-length SMN and SMNΔ7 and allows quantitative assessment of SMNΔ7's instability determinants was developed. […] Forty-eight hours after transfection, cells were treated with the protein synthesis inhibitor cycloheximide (CHX), and luciferase activity was measured at time intervals of up to 10 hours. […]

293T cells [2] = test: Level of HA-tagged SMN proteins, Western blot with anti-HA antibody; type: cell-based; details: without MG132 treatment
Protocol: FIG. 3, comprising FIG. 3A through FIG. 3D, is a series of images depicting the importance of residue S270 for the activity of the SMNΔ7-DEG through YG+EMLA. FIG. 3A is a schematic illustration depicting seven residues in the YG box that were each mutated to alanine, as indicated. […] depicts the results of Western blot analyses using an anti-HA tag antibody directed against HA-tagged SMN, SMNΔ7, and SMNΔ7^S270A expressed in 293T cells treated with DMSO or 10 μM MG132 (MG) for 16 hours. Fusion proteins were monitored by, and Magoh was used as a control. FIG. 3C is a graph depicting the quantification of HA-tagged proteins depicted in FIG. 3B and compared to HA-SMN without MG132 treatment. Protein amount (%) for SMNΔ7, and SMNΔ7^S270A are calculated relative to HA-SMN not treated with MG132, that is arbitrarily set to 100%. The fold change of each fusion protein amount upon MG132 treatment is indicated in red above the column. […]
To identify specific residues in the SMN07-DEG that are important for its activity, mutagenesis of the YG box was performed wherein every second residue was converted to alanine in the context of full-length SMNΔ7 and determined the half-life of each in 293T cells. […] The levels of the tagged SMN proteins were then monitored by Western blots using anti-HA antibody (FIG. 3B).

S5 cells = test: Rescue of S5 cell viability after tetracycline depletion of SMN; type: cell-based, chicken; details: retroviral expression, one week after tetracycline (1 μg/ml)
Protocol: FIG. 4, comprising FIG. 4A through FIG. 4D, is a series of images depicting the functionality of SMNΔ7^S270A in snRNP assembly and its ability to rescue SMN-deficient cells. FIG. 4 A is a series of panels depicting S5 cells cultured in the presence of tetracycline (1 μg/ml) to deplete endogenous SMN and infected with retroviruses expressing SMN, SMNΔ7, or SMNΔ7^S270A. FIG. 4B is a graph depicting cell growth as in FIG. 4A measured by monitoring the number of live cells at the indicated time points following tetracycline addition. FIG. 4C depicts the results of Western blot analyses of SMN protein in rescued cells (10 days after tetracycline addition). FIG. 4D is a graph depicting SMN complex activity (%) as measured by in vitro snRNP assembly on U4 snRNA in cytoplasmic extracts from rescued cells, using U4ΔSm RNA as a control.
S5 cells were maintained and infected with retroviruses expressing SMN, SMNΔ7, and SMNΔ7^S270A as described (Wang et al., 2001, J. Biol. Chem. 276:9599).
To determine whether SMNΔ7^S270A is a functional SMN protein, a previously established cell system, the S5 cell line, was used to investigate if SMNΔ7^S270A could rescue the viability of SMN-depleted cells. […]

B1: SMNΔ7: SMN protein from exon 7 skipping, lacks C-terminal 16 amino acids and acquires EMLA (protein, listed as Homo sapiens)
chain: MAMSSGGSGGGVPEQEDSVLFRRGTGQSDDSDIWDDTALIKAYDKAVASFKHALKNGDICETSGKPKTTPKRKPAKKNKSQKKNTAASLQQWKVGDKCSAIWSEDGCIYPATIASIDFKRETCVVVYTGYGNREEQNLSDLLSPICEVANNIEQNAQENENESQVSTDESENSRSPGNKSDNIKPKSAPWNSFLPPPPPMPGPRLGPGKPGLKFNGPPPPPPPPPPHLLSCWLPPFPSGPPIIPPPPPICPDSLDDADALGSMLISWYMSGYHTGYYMEMLA
For B1, the “half-life (t1/2)” value (293T cells [1]) was roughly 3 h, the “amount of HA-tagged protein” value (293T cells [2]) was “much lower than that of SMN” and the “rescue of viability of SMN-depleted S5 cells” value (S5 cells) was “did not”.
